According to the supplement of paper PMC10567573:

B1: DLC1 (parent)
chain: KRSWEEHVTHWMGQPFNSDDRNTA

Variants of: B1
Test: protein stability index of a GFP-peptide fusion (GPS, HEK-293T) (PSI 1-6); higher = more stable
Conditions: c terminus: a fixed tail appended
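Further: lentivirally expressed fusions sorted by FACS into six bins by GFP to DsRed ratio, PSI derived from sequencing read proportions per bin multiplied by bin number.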

Variant | protein stability index
KCSWEEHVTHWMGQPFNSDDRNTA [R2C] | 2.52
KESWEEHVTHWMGQPFNSDDRNTA [R2E] | 3.61
KASWEEHVTHWMGQPFNSDDRNTA [R2A] | 3.11
KSSWEEHVTHWMGQPFNSDDRNTA [R2S] | 3.79
KWSWEEHVTHWMGQPFNSDDRNTA [R2W] | 2.98
KVSWEEHVTHWMGQPFNSDDRNTA [R2V] | 3.26
KGSWEEHVTHWMGQPFNSDDRNTA [R2G] | 3.61
KTSWEEHVTHWMGQPFNSDDRNTA [R2T] | 3.7
KDSWEEHVTHWMGQPFNSDDRNTA [R2D] | 4.37
KKSWEEHVTHWMGQPFNSDDRNTA [R2K] | 2.6
KRSWEEHVTHWMGQPFNSSDRNTA [D19S] | 2.6
KRSWEEHVTHWMGQPFNSPDRNTA [D19P] | 2.73
KRSWEEHVTHWMGQPFNSHDRNTA [D19H] | 2.29
KRSWEEHVTHWMGQPFNSFDRNTA [D19F] | 1.85
KRSWEEHVTHWMGQPFNSKDRNTA [D19K] | 2.61
KRSWEEHVTHWMGQPFNSADRNTA [D19A] | 2.67
KRSWEEHVTHWMGQPFNSIDRNTA [D19I] | 3.12
KRSWEEHVTHWMGQPFNSWDRNTA [D19W] | 2.64
KRSWEEHVTHWMGQPFNSDDRNVA [T23V] | 2.13
KRSWEEHVTHWMGQPFNSDDRNEA [T23E] | 2.73
KRSWEEHVTHWMGQPFNSDDRNCA [T23C] | 3.51
KRSWEEHVTHWMGQPFNSDDRNSA [T23S] | 2.26
KRSWEEHVTHWMGQPFNSDDRNQA [T23Q] | 3.27
KRSWEEHVTHWMGQPFNSDDRNGA [T23G] | 2.69

Variant | protein stability index
KRSWEEHVTHWMGQPFNSDDRNAA [T23A] | 2.22
KRSWEEHVTHWMGQPFNSDDRNNA [T23N] | 2.74
KRSWEEHVTHWMGQPFNSDDRNYA [T23Y] | 2.16
KRSWEEHVTHWMGQPFNSDDRNWA [T23W] | 1.79
KRSWEEHVTHWMGQPFNSDDRNLA [T23L] | 2.08
KRSWEEHVTHWMGQPFNSDDRNTT [A24T] | 2.43
KRSWEEHVTHWMGQPFNSDDRNTM [A24M] | 2.09
KRSWEEHVTHWMGQPFNSDDRNTE [A24E] | 3.59
KRSWEEHVTHWMGQPFNSDDRNTQ [A24Q] | 3.18
KRSWEEHVTHWMGQPFNSDDRNTK [A24K] | 3.54
KRSWEEHVTHWMGQPFNSDDRNTS [A24S] | 2.67
KRSWEEHVTHWMGQPFNSDDRNTN [A24N] | 2.23
KRSWEEHVTHWMGQPFNSDDRNTG [A24G] | 2.97
KRSWEEHVTHWMGQPFNSDDRNTI [A24I] | 2.81
KRSWEEHVTHWMGQPFNDDDRNTA [S18D] | 3.1
KRSWEEHVTHWMGQPFNQDDRNTA [S18Q] | 3.02
KRSWEEHVTHWMGQPFNRDDRNTA [S18R] | 2.1
KRSWEEHVTHWMGQPFNADDRNTA [S18A] | 3.48
KRSWEEHVTHWMGRPFNSDDRNTA [Q14R] | 3.47
KRSWEEHVTHWMGTPFNSDDRNTA [Q14T] | 2.31
KRSWEEHVTHWMGKPFNSDDRNTA [Q14K] | 2.82
KRSWEEHVTHWMGAPFNSDDRNTA [Q14A] | 3.23
KRSWEEHVTHWMGLPFNSDDRNTA [Q14L] | 2.64
KRSWEEHVTHWMGDPFNSDDRNTA [Q14D] | 2.69

Variant | protein stability index
KRSWEEHVTHWMGMPFNSDDRNTA [Q14M] | 2.34
KRSWEEHVTHWMGCPFNSDDRNTA [Q14C] | 3.01
KRSWEEHVTHWMGVPFNSDDRNTA [Q14V] | 3.15
KRSWEEHVTHWMGWPFNSDDRNTA [Q14W] | 2.03
KRSWCEHVTHWMGQPFNSDDRNTA [E5C] | 2.17
KRSWVEHVTHWMGQPFNSDDRNTA [E5V] | 2.65
KRSWREHVTHWMGQPFNSDDRNTA [E5R] | 2.64
KRSWSEHVTHWMGQPFNSDDRNTA [E5S] | 3.41
KRSWPEHVTHWMGQPFNSDDRNTA [E5P] | 3.95
KRSWGEHVTHWMGQPFNSDDRNTA [E5G] | 3.07
KRSWQEHVTHWMGQPFNSDDRNTA [E5Q] | 3.1
KRSWYEHVTHWMGQPFNSDDRNTA [E5Y] | 3.04
ERSWEEHVTHWMGQPFNSDDRNTA [K1E] | 4.15
WRSWEEHVTHWMGQPFNSDDRNTA [K1W] | 2.49
QRSWEEHVTHWMGQPFNSDDRNTA [K1Q] | 3.76
KRSWEEHVTHWMGQPFNSDDMNTA [R21M] | 2.27
KRSWEEHVTHWMGQPFNSDDGNTA [R21G] | 3.17
KRSWEEHVTHWMGQPFNSDDWNTA [R21W] | 2.92
KRSWEEHVTHWMGQPFNSDDCNTA [R21C] | 2.85
KRSWEEHVTHWMGQPFNSDDHNTA [R21H] | 2.47
KRSWEEHVTHWMGQPFNSDDINTA [R21I] | 2.61
KRSWEEHVTHWMGQPFNSDDANTA [R21A] | 2.64
KRSWEEHVTHWMGQPFNSDDNNTA [R21N] | 3.91
KRSWEEHVTHWMGQRFNSDDRNTA [P15R] | 2.41

Variant | protein stability index
KRSWEEHVTHWMGQTFNSDDRNTA [P15T] | 2.29
KRSWEEHVTHWMGQYFNSDDRNTA [P15Y] | 2.79
KRSWEEHVTHWMGQAFNSDDRNTA [P15A] | 2.95
KRSWEEHVTHWMGQKFNSDDRNTA [P15K] | 2.85
KRSWEEHVTHWMGQEFNSDDRNTA [P15E] | 3.45
KRSWEEHVTHWMGQLFNSDDRNTA [P15L] | 3.4
KRSWEEHVTHWMGQNFNSDDRNTA [P15N] | 2.48
KRSWEEHVTHWMGQMFNSDDRNTA [P15M] | 2.17
KRSWEEHVTHWMGQIFNSDDRNTA [P15I] | 1.56
KRSWEEHVTHWMGQQFNSDDRNTA [P15Q] | 2.1
KRSWEEHVTHWMGQCFNSDDRNTA [P15C] | 2.35
KRSWEEHVTHWPGQPFNSDDRNTA [M12P] | 3.67
KRSWEEHVTHWFGQPFNSDDRNTA [M12F] | 2.94
KRSWEEHVTHWNGQPFNSDDRNTA [M12N] | 2.79
KRSWEEHVTHWHGQPFNSDDRNTA [M12H] | 2.94
KRSWEEHVTHWEGQPFNSDDRNTA [M12E] | 2.32
KRSWEEHVTHWKGQPFNSDDRNTA [M12K] | 2.98
KRSWEEHVTHWRGQPFNSDDRNTA [M12R] | 2.49
KRSDEEHVTHWMGQPFNSDDRNTA [W4D] | 5.21
KRSSEEHVTHWMGQPFNSDDRNTA [W4S] | 4.32
KRSQEEHVTHWMGQPFNSDDRNTA [W4Q] | 4.71
KRSMEEHVTHWMGQPFNSDDRNTA [W4M] | 3.95
